Changes are numbered by the printed parent chain. Names and notes keep the numbering of the source. One block for each binder: values may come before it.
Experiments:
[1] = target: the molecule itself; experiment: SEC; isolated monomers at low concentration (~7.5 µM) and high concentrations (54 µM for R221E, 30 µM for wt)
[2] = target: T1, rh wild-type Bri2 BRICHOS-mCherry (human, UniProt Q9Y287 113-231); experiment: not stated; coincubation of R221E monomers with Bri2 BRICHOS-mCherry oligomers at rising molar ratios; release of wild-type monomers followed (Supplementary Fig. 5); conditions: both partners purified
T1 construct: Bri2 BRICHOS domain, human (rh = recombinant human), Bri2 residues 113-231; Used as isolated oligomers; also called rh Bri2 BRICHOS-mCherry; source: E. coli SHuffle T7, purified (same protocol as R221E; oligomers isolated on Superdex 200 PG); not shown: His6, N-terminal, cleaved; NT*, N-terminal, cleaved; mCherry, C-terminal, kept
T1 sequence (looked up): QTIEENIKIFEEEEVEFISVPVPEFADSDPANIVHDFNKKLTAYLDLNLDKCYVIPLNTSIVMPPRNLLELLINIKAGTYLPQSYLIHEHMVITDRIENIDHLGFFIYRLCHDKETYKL

B1: rh wild-type Bri2 BRICHOS (domain or fragment, human, UniProt Q9Y287 113-231, looked up)
chain: T1 sequence (looked up)
notes: Bri2 BRICHOS domain, human (rh = recombinant human), Bri2 residues 113-231; also called rh wt Bri2 BRICHOS; wild-type monomers; source: E. coli SHuffle T7, purified (Ni-NTA, thrombin cleavage, second Ni-NTA, SEC); not shown: His6, N-terminal, cleaved; NT*, N-terminal, cleaved
stoichiometry N [1]: 2

molar ratio of mutant to wild-type oligomers at which the release of wild-type monomers saturates [2]: ~2 mol/mol
B2: rh Bri2 BRICHOS R221E monomer (domain or fragment, human, UniProt Q9Y287 113-231, looked up)
chain: T1 sequence (looked up) with R109E
modifications: intramolecular disulfide bond between the two conserved Cys (monomer, by ESI-MS)
notes: Bri2 BRICHOS domain, human (rh = recombinant human), Bri2 residues 113-231, with R221E; Used here for the isolated monomer and as the subunit in the rows on self-association (oligomers, dimers); Measured mass 14,050.2 Da; also called rh Bri2 R221E monomer; source: E. coli SHuffle T7, purified (Ni-NTA, thrombin cleavage, second Ni-NTA, SEC); not shown: His6, N-terminal, cleaved; NT*, N-terminal, …

Reference: article PMC6971075, “Augmentation of Bri2 molecular chaperone activity against amyloid-β reduces neurotoxicity in mouse hippocampus in vitro” (Communications Biology, 2020)
